The values below come from the DeepSol protein solubility set.

The nature of this data set: soluble on expression in E. coli; label from the status in PepcDB or PDB records.
On to “MGSDKIHHHHHHMNQSRLICFVALLFVLSGCQGKPVTIPEEDGPMVVVSHIKESTFSFISKNKMELLETEESPYPLTAMVDIEGGQIVVTSQTEDTLFLFDTVQGKILPFITLNKGLTVMEFDRAKRMLFVADTLNDEIIQIDVDKREVQTRIAIDCSPTDLQVIDDLLFILSSETSTVFIYDMRSETMIQSFSVTERPAGMFYDGSHLWIGGHGPYGDLNKRIFAYNIKTGVIDQEVEVGLMPITIYQDQHDTYVYVLCHGDDALYKVDLDAKRVEASLSVGHNPYYLKGDGDHLYVSNLDDDTFSIIERTTFQVVNEINVPAGPYAIVLEEEE”, for which the “soluble on expression in E. coli” value is listed as “not soluble”.
Turning to “INQPVIETERFDLRPLRKSDMGLIEHYARDERVARMTTSIPHPLPPGMAEGFVARAMSEERTEDVWAMDATRDGGPELMGLISLERMDRNQSEVGYWVAPVFWNTGIASMAVEALVNANPLGNATMFASVFQDNPASARVLTHCGFQYLGDAESYSVARDAAVPTWTYSRKL”, the “soluble on expression in E. coli” value was “soluble”.
In the case of “MQPIEFLEGGCLCGAIRYRIEGNPFDADYCHCRMCQKSIGAAFGAWMDFNVSQVTWLKGNVTEFASSDFVRRGFCAQCGCSLTYRHTEYPDYLTLTIASFDDPNLVQPNYHIYTEQQLSWLKIEDNCQRYPQARTK” it was “soluble”; in that of “MRLEVFCEDRLGLTRELLDLLVLRGIDLRGIEIDPIGRIYLNFAELEFESFSSLMAEIRRIAGVTDVRTVPWMPSEREHLALSALLEALPEPVLSVDMKSKVDMANPASCQLFGQKLDRLRNHTAAQLINGFNFLRWLESEPQDSHNEHVVINGQNFLMEITPVYLQDENDQHVLTGAVVMLRSTIRMGR”, “soluble”.
Under “MFGGGSSGPVDTTLYTTLNVRPDASQADIKKSYFKLAKEYHPDKNPDHGDKFKEISFAYEVLSSPEKRRLYDARGLEGVQGGGAGGGGGGFPGGLFSHFFGGAGGDDDDDDDDMGGHPFGGLFGGMGGMGRGGPRRRKFQDTVHPLNVTLEELYVGKTSKLKLSKKALCKTCEGSGGKKGEKYKCDACRGRGVKTIVQQIGPGMLQQMQVHCDACKGSGGKVPAGDKCKGCHGEKYENVSKILEVHVLPGMKHNDKITFKGDGDQSDPDGEPGDVVIVIQQKDHDIFKRDGDDLHMTKKLSLNEALCGYNFLIKHLDGHPLVLSSKQGDVIKPGVIRGVLGKGMPNKKYPELKGNLFVEFEVEFPKEHFLDDEKAYAVLKSCFPTSKVVNVTPAAAEVSLMEYDEKKYSRGRGGDAYNEDSDEEQHGGHHGQGVRCQHQ” stands “not soluble”; under “DAQNYFQATEIRTMIALLQLIDNPYQDIPLAAVLRSPIVGLKENELVLIRLANKETSYYEAFLTFNQKMEPTMEEAVVQEKTIRFAESLEKWREQARRNQISNLLWTIYRETAYLDYVGGLPVGKQRQANLYALVDRAAAYEKTTFRGLFQFVRFIEKMQEKDKDLAEPVVLSEENAVRV”, “not soluble”; under “MGSDKIHHHHHHMEHFLYRLNFSTALHIGKDAGGPSLDDGQMIIHADTLFAALCCEAVRGGRITQLVKYFADGILSISDALPYAGDEIFLPRPVLFTENRKRAGDSALAKALKNKDYIPLSFFGDYLKSMQQLDFNLESLKSESDFGYLTTLTRVAIKGNSPPLPYHVAAWRFADGCGLYIIVRSEQEEARTMFASLLAELGLSGIGGKQSSGWGKFEVKPGPVPDELLRLLEDKQAEYQMLMGTALPVDNELDTVLLNGWYKLLRRGGFIRSESYAARQMKKKTIYMLASGSCLRSRFKGAMLDLSDNGAHPVWRCGNTLFVGVTI”, “not soluble”.
Turning to “MTVLMRLVASAYSIAQKAGMIVRRVIAEGDLGIVEKTCATDLQTKADRLAQMSICSSLARKFPKLTIIGEEDLPSEEVDQELIEDSQWEEILKQPCPSQYSAIKEEDLVVWVDPLDGTKEYTEGLLDNVTVLIGIAYEGKAIAGVINQPYYNYEAGPDAVLGRTIWGVLGLGAFGFQLKEVPAGKHIITTTRSHSNKLVTDCVAAMNPDAVLRVGGAGNKIIQLIEGKASAYVFASPGCKKWDTCAPEVILHAVGGKLTDIHGNVLQYHKDVKHMNSAGVLATLRNYDYYASRVPESIKNALVPAHHHHHH”, the “soluble on expression in E. coli” value is reported as “soluble”.
As for “MAKGASISGFPEWLPSERVVEQRVIDTLRNVFELNGFIGIETRAVEQGSSLLKKGETSKEIYLLSRLQEVGHESDTPIEDRLGLHFDLTVPLSRYVVEHSGDLAFPFKRWQIQKVWRGERPQEGRFREFVQADIDVIGNGDLPDHYEVELPLVMVSALERLREFGLPKATVHANNRKLSEGFYRGLGLTDIEGVLREIDKLDKIGADEVAKLLVEGCGADEAQARACLELAELTAADGKELSDKFDALCAKHDIASDSDAYVLARQGLDTLAMIVDEAARIRPGSVIADLKIARGLDYYTGSVYETFLDGAAALGSICSGGRYDNLASQGNKKYPGVGLSIGLSRLVSYMLHTAGAHANRVSPASVLVAVWNEADRSASNLIANQLRSRGIAADVAPTAAKLGKQIKYADKLGIPYVWFPADASEEGAQDEVKNIITGDQRPADAQSWEPDTVYAQQTVTVEA”, the “soluble on expression in E. coli” value is recorded as “soluble”.
Under “TRELEDAQAMTEGERRKLASVIAYMTDGVIATNRNGAIILLNSPALELLNVSRETALEMPITSLLGLQENYTFEDLVEQQDSMLLEIERDDELTVLRVNFSVIQREHGKIDGLIAVIYDVT” stands “not soluble”; under “MSAYSMLSDRIVMAKELIKRAESLSRSRKGGIEGGAKLCSKLKAELKFLQKIEAGKVAIKESHLQSTNLTHLKAIVESAENLEEVVSVLRVFGYTDTLGEKQTLVVDVVANGGHTWVKAIGRKAEALHNIWLGRGQYGDKSIIEQAEDFLQASRQQPVQYSNPHIVFAFYNSVSSPMADKLKDMGISVRGDIVAVNSLLNHPEEFQLSESESDDEGQELLQVTRVDRDNVLARVAFPTEIKVDVCKKVNLDITTLITYVSAMSYGGCHFVFKEKVLTEQAEQERKERVLPQLEAFMKDKELFACESAVKDFQSILDTLGGPGERERADVLIKRISVVPDQPSERALRLVASSKINSRSLTIFGTGDTLKAITMTANSGFVRAANNQGVKFSVFIHQPRALTESKEAFAVPLPKDLTDDSAH”, “not soluble”.
In the case of “MELKKIVEAILFSSSEPVDARELRKITGKDKVEILNAIGELIKDYESRDTSIEIIKVGEKYLMRVKPQYAEYVERFTVREFDRGTLRTLAVIALKQPITLAKVAKIRGNKCYEHVKKLQERGLVKAEKKGRSTILTTTEEFATYFGLDSAEPEKIKEALKGYLEAE” it was “soluble”; in that of “MGSDKIHHHHHHDETVYDKLPADDFGQSTAELNALIGNSHNTMKKFWTEYMHLSECSGSMAVTPTRRGGDWYDGGQYREIYMHTWTSQTSRVKSAWKAATEAIGTCNEAIRKLQNSEILTEEEKAQDVADLRGVRAFWIYVMMDYWGNIPLLTEFHPTDKVFPGNSSRQEVFDWLIQEVEEIKDICPPATTENYGSFTQGAAYSLLAKLYLNAEAWGVTFSGNAYQKVIDNCDKVMAMGYILEPNWKDNFSVTNENSKEAILAATFSSSDTGNDGNVKNELHNNTLHYKDYLSLGITASGTWNGICAQPEYVRLFDEEDARLDGTFLTGLMIDKSTGKPIMTDHNNELNHTIDVNMIPGMEYDGTNWSAVEQHDGARCFKWEFASDLTSSMGNDFHIFRLADIYLMKAEALLRGGGSVSEATALVNTIRERGYGNSDHNYATVTLKEVQLERRLELAWEVYSRQDDIRFGCFTTGMWPQSNCERKADDYLKLLPVSQDAWQVNPNLKQNPGYAAFSK”, “not soluble”; in that of “PSSAVGSGSEGFIVRLPAALLFKEGGIEVENSDGFLFVKRMAEIVNRLPKDVHVEVRGHTDTLPLPAQAPQDKLELTAKRALSVSKLLVKEGIDPKRITTVGRGDQDPLTHARTPEAQESNRRVDIYLYPKE”, “soluble”.
Under “MRGSHHHHHHGSPYNVMIVDDAAMMRLYIASFIKTLPDFKVVAQAANGQEALDKLAAQPNVDLILLDIEMPVMDGMEFLRHAKLKTRAKICMLSSVAVSGSPHAARARELGADGVVAKPSGTVSHDLEEKTGGELARTMRTLMAA” stands “soluble”; under “MKIQCDVCEKAPATLICCADEAALCAKCDVEVHAANKLASKHQRLFLDSLSTKFPPCDICLEKAAFIFCVEDRALLCRDCDEATHAPNTRSANHQRFLATGIRVALSSTSCNQEVEKNHFDPSNQQSLSKPPTQQPAAPSPLWATDEFFSYSDLDCSNKKEQLDLGELDWLAEMGLFGDQPDQEALPVAEVPELSFSHLAHAHSYNRPMKSNVPNKKQRLEYRYDDEEEHFLVPDLG”, “not soluble”.
Take “MLIWSPSVRIAANIRTDNPNSLKRNANMPQLTLDKTDIKILQVLQENGRLTNVELSERVALSPSPCLRRLKQLEDAGIVRQYAALLSPESVNLGLQAFIRVSIRKAKDAREDFAASVRKWPEVLSCFALTGETDYLLQAFFTDMNAFSHFVLDTLLSHHGVQDAQSSFVLKEIKHTTSLPLNHLLKE”: the “soluble on expression in E. coli” value is given as “not soluble”.
In the case of “MSSAPPAPRVIAVVGPTAAGKSDLGVFLAQRLGGEVVNADSMQLYRGMDIGTAKLTPEERGGVPHHLLDIWDVTVTASVAEYQRLARERIDALLAEGRWPILVGGSGLYVRGAVDNLEFPGTDPGIRARLEEELELRGPGALHARLAVADPEAARAILPSNGRRIVRALEVIEITGRPFTANLPGHDSVYDTVQIGVDVARPELHERIALRVDRMWEAGLVDEVRALEAQGLREGRTASRALGYQQVLAALAGECTLDEARAETVRATKRFARRQDSWFRRDPRVHWLSGGVADRTELPRLALSLVERPVTALEHHHHHH” it was “not soluble”; in that of “MAGNFDSEERSSWYWGRLSRQEAVALLQGQRHGVFLVRDSSTSPGDYVLSVSENSRVSHYIINSSGPRPPVPPSPAQPPPGVSPSRLRIGDQEFDSLPALLEFYKIHYLDTTTLIEPVSRSRQGSGVILRQEEAEYVRALFDFNGNDEEDLPFKKGDILRIRDKPEEQWWNAEDSEGKRGMIPVPYVEKYRPASASVSALIGGNQEGSHPQPLGGPEPGPYAQPSVNTPLPNLQNGPIYARVIQKRVPNAYDKTALALEVGELVKVTKINVSGQWEGECNGKRGHFPFTHVRLLDQQNPEEDFS”, “soluble”; in that of “MGHHHHHHGGHMSLEEVLEAAEKIRSMEVRGAARIARFAAETLMKFAEKASDEKFDEEMRFAAETLLNTRPTAVSLYNAINYVMRYSGESVEEKRQSVIRRAREFINWVETAQRKIGEIGEKRIKDGYTVMTHCNSSAALSVIKKAHENGKRVEVIATESRPRWQGHLTVKQLREAGIEVTLIVDSAVRYFINEVDCVVVGADTITANGALINKIGTSQIALAAKEARVPFMVAAETYKFSPKTLFGELVVIEERDAREVAPEEILKLGVKVRNPAFDVTPRDYIDVIITEIGAIPPEMAYIVITERLGYAGIEEEEITLNSRHFDEGGS”, “soluble”.
In the case of “MQAVNTTSGGAVGVERQQYMFSMLSTDEVNQMYAQSYQQTLGEASSKGVLDKSSADAKRVQAIANRLIAQAPKFRPDAAQWDWQVNVIKSDELNANCGPGGKIIVYTGLIDQLKLTDAEIAAVVGHEIAHALREHSREAMSKAYGVEMARQGAGAIFGLGQSSMAMADTVVNYAMTLPNSRANENEADLIGLELSARAGYDPNAAITLWNKMSKASEGAPPEFMSTHPASASRIASLQAAIPKVMPLYQAAAKPLEHHHHHH” it was “soluble”.
